Laboratory results: paper PMC5681266

Columns and labels:
[1] = biological target: chemokine (C-X-C) motif receptor (CXCR) 4 (human (endogenous in hPPAEC)) (UniProt P61073)
[2] = biological target: atypical chemokine receptor 3 (human (endogenous in hPPAEC)) (UniProt P25106)
UniProt P25106, sequence (P25106 whole entry): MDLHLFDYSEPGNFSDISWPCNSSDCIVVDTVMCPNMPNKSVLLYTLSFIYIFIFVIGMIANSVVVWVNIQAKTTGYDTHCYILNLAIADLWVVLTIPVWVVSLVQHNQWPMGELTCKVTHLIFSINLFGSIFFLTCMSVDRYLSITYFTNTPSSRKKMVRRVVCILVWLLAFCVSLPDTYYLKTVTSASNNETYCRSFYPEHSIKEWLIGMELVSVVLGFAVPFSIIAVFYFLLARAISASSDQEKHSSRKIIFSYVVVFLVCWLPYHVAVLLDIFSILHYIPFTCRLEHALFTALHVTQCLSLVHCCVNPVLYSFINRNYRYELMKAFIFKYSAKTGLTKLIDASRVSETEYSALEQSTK

UniProt P61073, sequence (P61073 whole entry): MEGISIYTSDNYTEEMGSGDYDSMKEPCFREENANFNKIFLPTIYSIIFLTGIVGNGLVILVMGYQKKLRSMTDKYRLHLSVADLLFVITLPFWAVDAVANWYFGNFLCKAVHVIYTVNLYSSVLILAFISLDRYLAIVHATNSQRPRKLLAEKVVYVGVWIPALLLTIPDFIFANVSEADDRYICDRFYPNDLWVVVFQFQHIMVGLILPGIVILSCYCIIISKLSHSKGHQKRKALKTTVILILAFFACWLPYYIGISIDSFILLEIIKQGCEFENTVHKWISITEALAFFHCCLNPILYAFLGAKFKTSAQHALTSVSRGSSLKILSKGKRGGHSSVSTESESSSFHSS

| Substance | EC50 of β-arrestin 2 recruitment to CXCR4, Presto-Tango (Tango plasmid in HTLA cells) [1] [nM] | efficacy (top plateau) of β-arrestin 2 recruitment to CXCR4, Presto-Tango, % of CXCL12α [1] [%] | EC50 of β-arrestin 2 recruitment to ACKR3, Presto-Tango (Tango plasmid in HTLA cells) [2] [nM] | efficacy (top plateau) of β-arrestin 2 recruitment to ACKR3, Presto-Tango, % of CXCL12α [2] [%] |
| --- | --- | --- | --- | --- |
| CXCL12 R47E (from UniProt P48061-2 22-89) (ligand) | 127 | 105 | 0.4 | 86 |
| CXCL12_(2), disulfide-locked dimeric CXCL12 variant (from UniProt P48061-2 22-89) (ligand) | 2.4 | 90 | 8.8 | 87 |
| N-terminal truncated CXCL12 (3–68) (from UniProt P48061-2 24-89) (domain or fragment) | > 1000 | – | 13.3 | 19 |

The next lines start with the values.

| EC50 of β-arrestin 2 recruitment to CXCR4, Presto-Tango (Tango plasmid in HTLA cells) [1] [nM] | efficacy (top plateau) of β-arrestin 2 recruitment to CXCR4, Presto-Tango, % of CXCL12α [1] [%] | EC50 of β-arrestin 2 recruitment to ACKR3, Presto-Tango (Tango plasmid in HTLA cells) [2] [nM] | efficacy (top plateau) of β-arrestin 2 recruitment to ACKR3, Presto-Tango, % of CXCL12α [2] [%] | Substance |
| --- | --- | --- | --- | --- |
| 145 | 111 | 1.2 | 83 | CXCL12 K27A/R41A/R47A (from UniProt P48061-2 22-89) (ligand) |
| 75 | 117 | 0.7 | 88 | CXCL12 S-S4V, a protease resistant mutant (from UniProt P48061-2 22-89) (ligand) |
| 27 | 103 | 5.6 | 98 | CXCL12_(1), engineered constitutively monomeric CXCL12 variant (from UniProt P48061-2 22-89) (ligand) |
| 1.4 | 73 | 1.5 | 103 | CXCL12β (from UniProt P48061 22-93) (ligand) |
